Test results reported in patent publication US20210221917A1.

Experiments:
FcyRIIb [1] = target: FcyRIIb (UniProt P31994); test: cell-based competitive TR-FRET assay (CisBio Bioassays); reference: Construct 5 (SIF3)
FcyRIIb [2] = target: FcyRIIb (UniProt P31994); test: cell-based competitive TR-FRET
FcyRIIa = FcyRIIa (UniProt P12318); test: cell-based competitive TR-FRET
FcyRIIIa = FcyRIIIa (UniProt P08637); test: cell-based competitive TR-FRET
FcγRIIa = FcγRIIa (UniProt P12318); test: cell-based competitive TR-FRET
FcγRIIIa = FcγRIIIa (UniProt P08637); test: cell-based competitive TR-FRET
FcγRIIb = FcγRIIb (UniProt P31994); test: cell-based competitive TR-FRET

fold increase in binding compared to Construct 5 (SIF3) (FcyRIIb [1]) [fold] | EC50 (FcyRIIb [2]) [nM] | EC50 (FcyRIIa) [nM] | EC50 (FcyRIIIa) [nM] | EC50 (FcγRIIa) [nM] | EC50 (FcγRIIIa) [nM] | EC50 (FcγRIIb) [nM] | Substance
> 300 | 0.0165 | 0.126 | 26.7 | – | – | – | Construct 5-FcyRIIb+ mutant (Construct 5 backbone with S267E/L328F) (from UniProt P01857 27-328; P0DOX5 223-449)
– | – | – | – | 502 | 96.2 | 1690 | IgG1
